Assay [1] has as its target T1, MLO-Y4 cell surface proteins (Mus musculus, UniProt P59242).
T1 construct: endogenous in cells; host or cells: MLO-Y4
T1 sequence (P59242 1-1191): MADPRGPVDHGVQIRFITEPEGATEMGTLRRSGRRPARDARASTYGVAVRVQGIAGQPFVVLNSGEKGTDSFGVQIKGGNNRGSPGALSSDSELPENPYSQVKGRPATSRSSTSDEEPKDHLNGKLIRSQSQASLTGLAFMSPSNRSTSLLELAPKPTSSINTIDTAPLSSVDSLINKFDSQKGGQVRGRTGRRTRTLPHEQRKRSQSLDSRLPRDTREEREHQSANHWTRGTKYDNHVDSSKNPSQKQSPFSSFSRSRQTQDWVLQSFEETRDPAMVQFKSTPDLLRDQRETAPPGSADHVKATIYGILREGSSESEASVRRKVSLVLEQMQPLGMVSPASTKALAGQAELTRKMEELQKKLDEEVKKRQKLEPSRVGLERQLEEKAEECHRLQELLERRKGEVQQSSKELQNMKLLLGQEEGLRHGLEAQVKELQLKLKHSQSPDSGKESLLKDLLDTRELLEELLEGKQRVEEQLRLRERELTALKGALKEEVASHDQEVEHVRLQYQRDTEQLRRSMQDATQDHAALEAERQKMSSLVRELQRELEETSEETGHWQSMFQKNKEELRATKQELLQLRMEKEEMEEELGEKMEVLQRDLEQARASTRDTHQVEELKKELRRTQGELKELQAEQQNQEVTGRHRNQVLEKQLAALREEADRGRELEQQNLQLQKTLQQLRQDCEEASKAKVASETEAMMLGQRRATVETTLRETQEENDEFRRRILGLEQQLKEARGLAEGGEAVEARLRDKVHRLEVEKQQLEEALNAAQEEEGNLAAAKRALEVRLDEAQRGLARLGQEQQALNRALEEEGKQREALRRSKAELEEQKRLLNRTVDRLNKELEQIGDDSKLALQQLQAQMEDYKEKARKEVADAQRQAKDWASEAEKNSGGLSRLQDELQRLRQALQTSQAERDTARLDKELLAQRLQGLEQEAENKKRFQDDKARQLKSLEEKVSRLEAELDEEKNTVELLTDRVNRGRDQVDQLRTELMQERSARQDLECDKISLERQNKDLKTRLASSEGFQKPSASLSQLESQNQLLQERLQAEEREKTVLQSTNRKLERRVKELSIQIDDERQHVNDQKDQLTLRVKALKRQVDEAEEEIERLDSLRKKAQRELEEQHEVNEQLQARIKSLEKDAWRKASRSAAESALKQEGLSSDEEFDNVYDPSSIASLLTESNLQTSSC
The assay is described as follows: Crosslinking/co-immunoprecipitation/mass spectrometry (TMT quantitative proteomics) to identify irisin receptors. It counts as binding. The settings on record: co-precipitated protein Cgn (CING_MOUSE). The gist of the method:
(§1)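 Relative protein abundance came from 6-plex TMT MS3 quantitation on an Orbitrap Fusion Lumos, after in-gel trypsin digestion of Coomassie-stained SDS-PAGE lanes. Input was a Ni-NTA pulldown (250 mM imidazole elution) of lysates from murine MLO-Y4 cells. These cells were treated on ice with His-tagged irisin or adipsin (10 nM, 20 min) in serum-free medium, then crosslinked with 1.5 mM DTSSP for 30 min.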

Assay [2] addresses T2, MLO-Y4 cell surface proteins (Mus musculus, UniProt Q9CYR0).
T2 construct: endogenous in cells; host or cells: MLO-Y4
T2 sequence (Q9CYR0 17-152): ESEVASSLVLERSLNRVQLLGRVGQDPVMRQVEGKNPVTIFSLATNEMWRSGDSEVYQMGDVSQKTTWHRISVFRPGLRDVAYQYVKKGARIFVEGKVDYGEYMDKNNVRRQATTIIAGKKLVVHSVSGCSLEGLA
Described as above. It counts as binding. Conditions: co-precipitated protein Ssbp1 (SSBP_MOUSE). In outline: as §1

B1: irisin: secreted cleaved form of FNDC5; recombinant human/mouse irisin with C-terminal his tag produced in HEK293 cells (protein)
chain: DSPSAPVNVTVRHLKANSAVVSWDVLEDEVVIGFAISQQKKDVRMLRFIQEVNTTTRSCALWDLEEDTEYIVHVQAISIQGQSPASEPVLFKTPREAEKMASKNKDEVTMKE
modifications: left off: small tags and cut ends
notes: secreted cleaved form of FNDC5; recombinant human/mouse irisin with C-terminal his tag produced in HEK293 cells
On to B1, for which, in assay [1], the TMT signal-to-noise ratio came out at 16.0255 and the “irisin/adipsin TMT signal-to-noise ratio” value stood at 0.080. Further, in assay [2], the TMT signal-to-noise ratio came to 244.754 and the “irisin/adipsin TMT signal-to-noise ratio” value was found to be 0.566.

For the origin of these results see US20210063414A1, “METHODS FOR PREVENTING AND/OR TREATING BONE LOSS CONDITIONS BY MODULATING IRISIN” (Dana-Farber Cancer Institute, Inc., priority 2018, published 2021).
